{"source": "paper PMC3790964", "about": "(Biochimica et Biophysica Acta, 2013)", "proteins": {"B1": {"name": "stomatin (natural protein, human (endogenous in erythrocytes), UniProt P27105 1-288, looked up)", "chain": "MAEKRHTRDSEAQRLPDSFKDSPSKGLGPCGWILVAFSFLFTVITFPISIWMCIKIIKEYERAIIFRLGRILQGGAKGPGLFFILPCTDSFIKVDMRTISFDIPPQEILTKDSVTISVDGVVYYRVQNATLAVANITNADSATRLLAQTTLRNVLGTKNLSQILSDREEIAHNMQSTLDDATDAWGIKVERVEIKDVKLPVQLQRAMAAEAEASREARAKVIAAEGEMNASRALKEASMVITESPAALQLRYLQTLTTIAAEKNSTIVFPLPIDMLQGIIGAKHSHLG"}}, "biological_target": "the molecule itself", "test": "cross-linking + affinity purification with mass spectrometry"}
{"protein": "B1", "values": [{"measurement": "stoichiometry N", "value": 2}]}
